B1: TUBB4: protein with methylated lysine identified in 3xMBT pull-down (protein, UniProt P04350 1-444, looked up)
Tubulin beta-4A chain: MREIVHLQAGQCGNQIGAKFWEVISDEHGIDPTGTYHGDSDLQLERINVYYNEATGGNYVPRAVLVDLEPGTMDSVRSGPFGQIFRPDNFVFGQSGAGNNWAKGHYTEGAELVDAVLDVVRKEAESCDCLQGFQLTHSLGGGTGSGMGTLLISKIREEFPDRIMNTFSVVPSPKVSDTVVEPYNATLSVHQLVENTDETYCIDNEALYDICFRTLKLTTPTYGDLNHLVSATMSGVTTCLRFPGQLNADLRKLAVNMVPFPRLHFFMPGFAPLTSRGSQQYRALTVPELTQQMFDAKNMMAACDPRHGRYLTVAAVFRGRMSMKEVDEQMLSVQSKNSSYFVEWIPNNVKTAVCDIPPRGLKMAATFIGNSTAIQELFKRISEQFTAMFRRKAFLHWYTGEGMDEMEFTEAESNMNDLVSEYQQYQDATAEEGEFEEEAEEEVA
B2: hnRNP D: protein with methylated lysine identified in 3xMBT pull-down (protein, UniProt Q14103 2-355, looked up)
Heterogeneous nuclear …: SEEQFGGDGAAAAATAAVGGSAGEQEGAMVAATQGAAAAAGSGAGTGGGTASGGTEGGSAESEGAKIDASKNEEDEGHSNSSPRHSEAATAQREEWKMFIGGLSWDTTKKDLKDYFSKFGEVVDCTLKLDPITGRSRGFGFVLFKESESVDKVMDQKEHKLNGKVIDPKRAKAMKTKEPVKKIFVGGLSPDTPEEKIREYFGGFGEVESIELPMDNKTNKRRGFCFITFKEEEPVKKIMEKKYHNVGLSKCEIKVAMSKEQYQQQQQWGSRGGFAGRARGRGGGPSQNWNQGYSNYWNQGYGNYGYNSQGYGGYGGYDYTGYNNYYGYGDYSNQQSGYGKVSRRGGHQNSYKPY
B3: SIRT1: NAD-dependent lysine deactylase SIRT1 (protein, UniProt Q96EB6 2-747, looked up)
NAD-dependent protein …: ADEAALALQPGGSPSAAGADREAASSPAGEPLRKRPRRDGPGLERSPGEPGGAAPEREVPAAARGCPGAAAAALWREAEAEAAAAGGEQEAQATAAAGEGDNGPGLQGPSREPPLADNLYDEDDDDEGEEEEEAAAAAIGYRDNLLFGDEIITNGFHSCESDEEDRASHASSSDWTPRPRIGPYTFVQQHLMIGTDPRTILKDLLPETIPPPELDDMTLWQIVINILSEPPKRKKRKDINTIEDAVKLLQECKKIIVLTGAGVSVSCGIPDFRSRDGIYARLAVDFPDLPDPQAMFDIEYFRKDPRPFFKFAKEIYPGQFQPSLCHKFIALSDKEGKLLRNYTQNIDTLEQVAGIQRIIQCHGSFATASCLICKYKVDCEAVRGDIFNQVVPRCPRCPADEPLAIMKPEIVFFGENLPEQFHRAMKYDKDEVDLLIVIGSSLKVRPVALIPSSIPHEVPQILINREPLPHLHFDVELLGDCDVIINELCHRLGGEYAKLCCNPVKLSEITEKPPRTQKELAYLSELPPTPLHVSEDSSSPERTSPPDSSVIVTLLDQAAKSNDDLDVSESKGCMEEKPQEVQTSRNVESIAEQMENPDLKNVGSSTGEKNERTSVAGTVRKCWPNRVAKEQISRRLDGNQYLFLPPNRYIFHGAEVYSDSEDDVLSSSSCGSNSDSGTCQSPSLEEPMEDESEIEEFYNGLEDEPDVPERAGGAGFGTDGDDQEAINEAISVKQEVTDMNYPSNKS
modifications: GST or 3xFlag tag

Key:
3×MBT domain of L3MBTL1 = experiment: SILAC proteomic pull-down 3×MBT vs 3×MBTD355N from 293T nuclear extract, LC-MS/MS; assay type: binding, human; settings: SILAC ratio, 293T nuclear extract pull-down; * = protein identified in only one labeling experiment
Description: Protein pull-downs were performed as described above using 600 μg of nuclear extract prepared with isotopic labels as indicated. After eluting with glutathione, 3×MBT domain was removed by dialysis into high salt and rebinding to GSH-sepharose. Bound proteins were separated by SDS-PAGE and analyzed by in-gel tryptic digest followed by LC-MS/MS. Peptides were identified using MaxQuant version 1.2.2.5 (Cox and Mann (2008) Nat. Biotechnol. 26, 1367-1372) and candidate methylated peptides were verified by manual inspection.
For stable isotope labeling by amino acids in cell culture (SILAC) experiments HEK 293T cells were grown for at least six doublings in DMEM for SILAC supplemented with 10% dialyzed fetal bovine serum (FBS), 230 mg/L L-proline and either 100 mg/L each of L-lysine and L-arginine (“light” medium), D4-L-lysine and ^13C6-L-arginine (“medium” media), or ^13C6^15N2-L-lysine and ^13C6^15N4-L-arginine (Thermo Scientific). Heavy methyl labeling used DMEM without L-Methionine or L-Cysteine supplemented with D3^13C-L-Methionine (Sigma), L-Cysteine (Sigma) and 10% dialyzed FBS.
600 μg of nuclear extract was incubated overnight rotating at 4° C. with 20 μl packed 3×MBT or 3×MBTD355N beads in a total volume of 250 μL with binding buffer. Supernatant was removed and saved for use as a loading control. Beads were washed 4×5 minutes with 0.5 mL binding buffer. Protein was eluted by incubating in 20 μL elution buffer (10 mg/mL glutathione in 50 mM Tris pH 8.0) rotating at 4° C. for four hours. Elutions from 3×MBT and 3×MBTD355N were combined and dialyzed overnight at 4° C. against 10,000× volume of dissociation buffer (50 mM Tris pH 7.5, 750 mM NaCl) in a 0.1 mL Slide-A-Lyzer MINI Dialysis Device with 3.5K molecular weight cutoff (Thermo Scientific). 80 μL of GSH-Sepharose was prepared by washing briefly three times with 0.5 mL binding buffer. Dialyzed proteins were added to the GSH-Sepharose and incubated 4 hours rotating at 4° C. to deplete the GST-fusion domains. Supernatant was transferred to a fresh 1.5 mL tube. Proteins were separated by SDS-PAGE on a 10% polyacrylamide gel and stained using SilverQuest Silver Staining Kit (Life Technologies). Lanes were excised, residual 3×MBT band was removed, and gel was diced into 0.5 mm cubes. Gel pieces were destained and processed by in-gel digestion (Carlson et al. (2011) Science Signaling 4) with sequencing grade trypsin (Promega) and the peptide sample was dried completely in a vacuum centrifuge. To prepare a loading control, 2 μL each of light and heavy nuclear extract were combined, 6 μL of 8M urea was added, proteins were denatured by adding 2 μL of 100 mM dithiothreitol in digest buffer (50 mM ammonium bicarbonate) and heating to 60° C. for 1 hour, cysteine was alkylated by adding 2.2 μL 100 mg/mL iodoacetamide in digest buffer and incubating 1 hour at room temperature in darkness, and proteins were digested by adding 80 μL trypsin (Promega) at 12.5 ng/μL in digest buffer and incubating overnight at room temperature in darkness. Digestion was stopped by adding 10 μL of 10% formic acid.
Each experiment consisted of two sets of pull-downs: “forward” labeling with 3×MBT incubated with light nuclear extract and 3×MBTD355N with medium extract, and a second “reverse” labeling experiment with the label conditions swapped. Proteins were included in the results if they were quantified in both labeling directions. To determine reproducibility the entire experiment including the label swap was duplicated using independent protein preparations and a mass spectrometer at another institution.
For 3×MBT pull-down experiment #1 the gel lane was processed and peptides were loaded off-line onto a first dimension trap column (Waters Xbridge, C18, 10 μm particle size, 100 Å pore size, 5 cm packing length, 150 μm column i.d.). […]

G9a = target: T1, G9a (Homo sapiens, UniProt Q96KQ7); experiment: In vitro methylation reaction with 3H-SAM, autoradiograph; assay type: biochemical; settings: recombinant SIRT1, recombinant G9a SET domain
T1 construct: in vitro methylation assays on SIRT1 and SIRT1K622R using recombinant G9a SET domain
T1 sequence (Q96KQ7 1038-1155 limits assumed, species assumed): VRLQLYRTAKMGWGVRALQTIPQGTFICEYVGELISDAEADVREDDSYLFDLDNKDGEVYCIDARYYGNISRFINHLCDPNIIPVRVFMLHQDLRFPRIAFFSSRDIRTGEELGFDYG
Description: Recombinant GST-SIRT1 was expressed by baculoviral transduction of the Sf9 insect cell line as previously described (Levy et al. (2011) Nat. Immunol. 12, 29-36). A panel of enzymes was tested for ability to methylate recombinant SIRT1 using ^3H-SAM in in vitro methylation reactions (Kuo et al. (2011) Mol. Cell 44, 609-620). SIRT1K622R was generated by site-directed mutagenesis (Stratagene). For the pull-down experiment, 293T cells were transfected with a 10:1 enzyme:substrate DNA ratio. 150 μg of nuclear proteins were used for pull-downs with 3×MBT or 3×MBTD355N coupled GSH-Sepharose as described above.

Molecule | Protein Ratio 3xMBT/D355N (3×MBT domain of L3MBTL1) | in vitro methylation by G9a (G9a)
B1 | 1.9 | 
B2 | 22.5 | 
B3 |  | methylates the NAD-dependent lysine deactylase SIRT1 at lysine 622

From patent US20140274782A1, “AFFINITY REAGENTS AND METHODS FOR DETECTION, PURIFICATION, AND PROTEOMIC ANALYSIS OF METHYLATED PROTEINS” (The Board of Trustees of the Leland Stanford Junior …, priority 2013, published 2014)
